Experimental data taken from paper PMC12153800 (2025).

T1: HiBiT-FZD4-mCherry (mouse, UniProt Q61088 37-537)
T1 chain: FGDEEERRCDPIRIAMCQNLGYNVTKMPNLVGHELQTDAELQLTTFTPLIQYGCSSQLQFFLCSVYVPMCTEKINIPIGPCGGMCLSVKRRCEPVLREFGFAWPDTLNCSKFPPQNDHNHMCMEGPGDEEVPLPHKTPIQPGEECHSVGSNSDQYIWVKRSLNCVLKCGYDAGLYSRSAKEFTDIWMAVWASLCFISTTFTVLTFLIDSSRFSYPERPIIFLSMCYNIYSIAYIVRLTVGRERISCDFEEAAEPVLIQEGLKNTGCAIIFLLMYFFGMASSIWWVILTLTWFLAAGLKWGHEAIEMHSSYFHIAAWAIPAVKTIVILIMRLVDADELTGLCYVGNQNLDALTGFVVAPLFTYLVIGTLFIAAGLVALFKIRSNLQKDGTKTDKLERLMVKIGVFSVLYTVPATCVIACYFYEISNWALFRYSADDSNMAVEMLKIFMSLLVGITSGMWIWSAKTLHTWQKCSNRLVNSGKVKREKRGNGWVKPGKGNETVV

T2: HiBiT-FZD5-mCherry (U-2 OS cells) (mouse, UniProt Q9EQD0 27-585)
T2 chain: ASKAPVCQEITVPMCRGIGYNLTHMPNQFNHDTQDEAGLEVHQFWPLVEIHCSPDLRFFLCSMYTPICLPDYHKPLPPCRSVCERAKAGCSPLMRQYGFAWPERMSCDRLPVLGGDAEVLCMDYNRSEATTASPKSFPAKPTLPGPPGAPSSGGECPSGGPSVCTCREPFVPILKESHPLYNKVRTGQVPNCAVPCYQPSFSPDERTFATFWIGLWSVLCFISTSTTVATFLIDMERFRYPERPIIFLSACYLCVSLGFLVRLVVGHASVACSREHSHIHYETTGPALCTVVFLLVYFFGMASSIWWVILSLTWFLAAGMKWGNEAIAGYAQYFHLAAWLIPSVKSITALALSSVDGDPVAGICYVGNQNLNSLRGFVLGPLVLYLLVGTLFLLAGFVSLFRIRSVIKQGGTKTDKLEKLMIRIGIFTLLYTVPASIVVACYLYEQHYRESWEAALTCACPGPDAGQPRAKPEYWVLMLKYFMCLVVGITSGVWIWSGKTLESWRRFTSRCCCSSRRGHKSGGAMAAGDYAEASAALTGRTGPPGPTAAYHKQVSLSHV

T3: HiBiT-FZD8-mCherry (mouse, UniProt Q61091 28-685)
T3 chain: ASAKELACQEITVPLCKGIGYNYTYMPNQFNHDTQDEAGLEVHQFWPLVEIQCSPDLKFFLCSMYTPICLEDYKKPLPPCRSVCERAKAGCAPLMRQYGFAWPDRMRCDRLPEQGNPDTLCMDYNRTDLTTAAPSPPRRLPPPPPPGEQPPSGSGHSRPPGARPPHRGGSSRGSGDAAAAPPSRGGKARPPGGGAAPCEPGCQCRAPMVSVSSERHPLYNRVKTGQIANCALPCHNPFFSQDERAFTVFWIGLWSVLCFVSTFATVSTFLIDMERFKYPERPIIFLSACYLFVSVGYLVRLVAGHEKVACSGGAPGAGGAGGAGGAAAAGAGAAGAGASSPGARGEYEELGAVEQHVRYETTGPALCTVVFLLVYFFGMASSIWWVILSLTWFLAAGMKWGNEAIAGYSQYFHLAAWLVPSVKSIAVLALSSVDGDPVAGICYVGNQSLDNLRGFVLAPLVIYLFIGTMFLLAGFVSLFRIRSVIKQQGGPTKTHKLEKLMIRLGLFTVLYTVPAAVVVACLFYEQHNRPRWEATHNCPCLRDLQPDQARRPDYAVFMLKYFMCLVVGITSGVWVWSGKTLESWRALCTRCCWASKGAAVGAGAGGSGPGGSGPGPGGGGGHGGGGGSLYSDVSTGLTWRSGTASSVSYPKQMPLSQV


Experiments:
HiBiT-FZD2-mCherry = HiBiT-FZD2-mCherry (mouse, UniProt Q9JIP6 29-570)
HiBiT-FZD1-mCherry = HiBiT-FZD1-mCherry (mouse, UniProt O70421 69-642)
HiBiT-FZD4-mCherry = molecular target: T1, HiBiT-FZD4-mCherry
[1] = molecular target: T2, HiBiT-FZD5-mCherry (U-2 OS cells)
HiBiT-FZD8-mCherry = molecular target: T3, HiBiT-FZD8-mCherry
HiBiT-FZD7-mCherry = HiBiT-FZD7-mCherry (mouse, UniProt Q61090 33-572)

Chain of HiBiT-FZD2-mCherry (Q9JIP6 29-570): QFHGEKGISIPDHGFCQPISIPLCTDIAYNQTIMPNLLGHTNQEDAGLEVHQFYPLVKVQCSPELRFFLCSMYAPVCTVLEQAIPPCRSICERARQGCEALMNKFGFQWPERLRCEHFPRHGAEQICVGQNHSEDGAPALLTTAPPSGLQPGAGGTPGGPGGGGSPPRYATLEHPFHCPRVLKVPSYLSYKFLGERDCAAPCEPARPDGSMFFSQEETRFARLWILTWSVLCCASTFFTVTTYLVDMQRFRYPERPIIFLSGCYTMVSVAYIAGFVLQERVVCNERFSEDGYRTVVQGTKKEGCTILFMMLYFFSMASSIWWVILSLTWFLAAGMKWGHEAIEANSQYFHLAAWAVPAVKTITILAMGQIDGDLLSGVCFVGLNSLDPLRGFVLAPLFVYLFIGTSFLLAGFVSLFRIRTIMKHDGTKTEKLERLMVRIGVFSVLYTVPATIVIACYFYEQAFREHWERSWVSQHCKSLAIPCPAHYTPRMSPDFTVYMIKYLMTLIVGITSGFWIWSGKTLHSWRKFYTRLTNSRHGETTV
Chain of HiBiT-FZD1-mCherry (O70421 69-642): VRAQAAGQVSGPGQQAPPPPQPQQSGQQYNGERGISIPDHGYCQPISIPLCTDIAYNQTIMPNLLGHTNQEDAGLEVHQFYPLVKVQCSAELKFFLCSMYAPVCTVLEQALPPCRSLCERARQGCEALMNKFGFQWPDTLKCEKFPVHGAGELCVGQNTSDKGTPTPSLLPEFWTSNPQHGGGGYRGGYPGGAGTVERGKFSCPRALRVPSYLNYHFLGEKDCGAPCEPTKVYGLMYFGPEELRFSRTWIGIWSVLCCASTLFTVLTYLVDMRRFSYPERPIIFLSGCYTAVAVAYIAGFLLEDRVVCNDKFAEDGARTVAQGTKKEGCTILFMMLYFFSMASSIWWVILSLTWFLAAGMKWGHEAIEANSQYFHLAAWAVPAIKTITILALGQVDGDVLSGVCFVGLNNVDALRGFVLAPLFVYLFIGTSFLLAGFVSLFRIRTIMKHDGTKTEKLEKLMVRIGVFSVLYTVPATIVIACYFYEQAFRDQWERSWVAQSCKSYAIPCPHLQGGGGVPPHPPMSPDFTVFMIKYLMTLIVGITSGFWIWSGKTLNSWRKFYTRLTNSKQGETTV

Kd (HiBiT-FZD2-mCherry)	Kd (HiBiT-FZD1-mCherry)	Kd (HiBiT-FZD4-mCherry)	Kd [1]	Kd (HiBiT-FZD8-mCherry)	Kd (HiBiT-FZD7-mCherry)	Binder
10.6 nM	30.7 nM	21.8 nM	14.2 nM	6.62 nM	10.3 nM	eGFP-Wnt16 (ligand) NWMWLGIASFGVPEKLGCANLPLNSRQKELCKRKPYLLPSIREGARLGIQECGSQFRHERWNCMITAAATTAPMGASPLFGYELSSGTKETAFIYAVMAAGLVHSVTRSCSAGNMTECSCDTTLQNGGSASEGWHWGGCSDDVQYGMWFSRKFLDFPIGNTTGKENKVLLAMNLHNNEAGRQAVAKLMSVDCRCHGVSGSCAVKTCWKTMSSFEKIGHLLKDKYENSIQISDKTKRKMRRREKDQRKIPIHKDDLLYVNKSPNYCVEDKKLGIPGTQGRECNRTSEGADGCNLLCCGRGYNTHVVRHVERCECKFIWCCYVRCRRCESMTDVHTCK
3.85 nM	14.4 nM	3.56 nM	16.2 nM	7.52 nM	1.25 nM	eGFP-Wnt5a (ligand) IIGAQPLCSQLAGLSQGQKKLCHLYQDHMQYIGEGAKTGIKECQYQFRHRRWNCSTVDNTSVFGRVMQIGSRETAFTYAVSAAGVVNAMSRACREGELSTCGCSRAARPKDLPRDWLWGGCGDNIDYGYRFAKEFVDARERERIHAKGSYESARILMNLHNNEAGRRTVYNLADVACKCHGVSGSCSLKTCWLQLADFRKVGDALKEKYDSAAAMRLNSRGKLVQVNSRFNSPTTQDLVYIDPSPDYCVRNESTGSLGTQGRLCNKTSEGMDGCELMCCGRGYDQFKTVQTERCHCKFHWCCYVKCKKCTEIVDQFVCK
